Data: patent US20220089698A1
Changes are numbered by the printed parent chain.

B1: 1.33.35-1 (antibody, human IgG1, kappa, V domains shown)
VH: QVQLVQSGAEVKKPGASVRVSCKASGYNIRDYFIHWWRQAPGQGLQWVGWINPKTGQPNNPRQFQGRVTLTRHASWDFDTFSFYMDLKALRSDDTATYFCARQRSDYWDFDVWGSGTQVTVSS
VL: DIQMTQSPSSLSASVGDRVTITCQANGYLNWYQQKPGKAPKLLIYDGSNLETGVPSRFSGSRWGQEYTLTISSLQPEDIATYFCQVYEFVGPGTNLDIKR
B2: 1.32.35-1 (antibody, human IgG1, kappa, V domains shown)
VH: B1 VH with K12T, K23E, T69S, T97V, S105T
VL: B1 VL
B3: 1.14.17-1 (antibody, human IgG1, kappa, V domains shown)
VH: B1 VH with V5L, E10A, K12T, K23E, I34M, W37V, T69S, F83A, T97V
VL: DIQMTQSPSSLSASVGDTVTITCQANGYLNWYQQRRGKAPKLLIYDGSKLERGVPSRFSGRRWGQEYNLTINNLQPEDIATYFCQVYEFFGPGTRLDLKR
B4: 1.31.35-1 (antibody, human IgG1, kappa, V domains shown)
VH: B1 VH with K12T, K23E, T69S
VL: B1 VL
B5: 1.12.17-1 (antibody, human IgG1, kappa, V domains shown)
VH: B1 VH with V5L, E10A, K12T, K23E, W37V, T69S, T97V
VL: B3 VL
B6: 1.34.35-1 (antibody, human IgG1, kappa, V domains shown)
VH: B1 VH with T97V, S105T
VL: B1 VL
B7: 1.1.35-1 (antibody, human IgG1, kappa, V domains shown)
VH: B1 VH with V5L, E10A, K12T, K23E, T69S, T97V
VL: B1 VL
B8: 1.13.17-1 (antibody, human IgG1, kappa, V domains shown)
VH: B1 VH with V5L, E10A, K12T, K23E, I34M, W37V, T69S, T97V
VL: B3 VL
B9: 1.35.35-1 (antibody, human IgG1, kappa, V domains shown)
VH: B1 VH with I34M, L70M, K88S, A89R, S105T, S115Q, Q118M
VL: B1 VL
B10: 1.36.35-1 (antibody, human IgG1, kappa, V domains shown)
VH: B1 VH with I34M, L70M, F83A, K88S, A89R, S105T, S115Q, Q118M
VL: B1 VL
B11: 3.1.9-1 (antibody, human IgG1, kappa, V domains shown)
VH: B1 VH with V5L, E10A, K12T, K23E, T69S, T97V
VL: B3 VL with S14R, V19A, S56A, I79V
B12: 1.1.78-1 (antibody, human IgG1, kappa, V domains shown)
VH: B1 VH with V5L, E10A, K12T, K23E, T69S, T97V
VL: B3 VL with V19A, N68H
B13: 3.1.18-1 (antibody, human IgG1, kappa, V domains shown)
VH: B1 VH with V5L, E10A, K12T, K23E, T69S, T97V
VL: B3 VL with S14R, T18R, V19A, S56A, R61S, N68H, N72S, N73S, I79V
B14: 2.3.15-1 (antibody, human IgG1, kappa, V domains shown)
VH: B1 VH with Q3H, V5S, E10A, K12T, K23E, T69S, L90V, T97I
VL: B3 VL with S14R, V19A, S56A, N68T, I79V
B15: 1.1.102-1 (antibody, human IgG1, kappa, V domains shown)
VH: B1 VH with V5L, E10A, K12T, K23E, T69S, T97V
VL: B3 VL with T18R, V19A, R61S, N68H, N72S, N73S
B16: 2.2.13-1 (antibody, human IgG1, kappa, V domains shown)
VH: B1 VH with Q3H, V5S, E10A, K12T, K23E, N28K, Y32H, T69S, L90V, T97I
VL: B3 VL with S14R, T18R, V19A, S56A, R61S, N68I, N72S, N73S, I79V
B17: 2.3.9-1 (antibody, human IgG1, kappa, V domains shown)
VH: B1 VH with Q3H, V5S, E10A, K12T, K23E, T69S, L90V, T97I
VL: B3 VL with S14R, V19A, S56A, I79V
B18: 3.1.17-1 (antibody, human IgG1, kappa, V domains shown)
VH: B1 VH with V5L, E10A, K12T, K23E, T69S, T97V
VL: B3 VL with S14R, V19A, S56A, N68H, I79V
B19: 2.2.12-1 (antibody, human IgG1, kappa, V domains shown)
VH: B1 VH with Q3H, V5S, E10A, K12T, K23E, N28K, Y32H, T69S, L90V, T97I
VL: B3 VL with S14R, V19A, S56A, N68I, I79V
B20: 2.3.13-1 (antibody, human IgG1, kappa, V domains shown)
VH: B1 VH with Q3H, V5S, E10A, K12T, K23E, T69S, L90V, T97I
VL: B3 VL with S14R, T18R, V19A, S56A, R61S, N68I, N72S, N73S, I79V
B21: 1.1.117-1 (antibody, human IgG1, kappa, V domains shown)
VH: B1 VH with V5L, E10A, K12T, K23E, T69S, T97V
VL: B3 VL with V19A, N68I
B22: 2.3.17-1 (antibody, human IgG1, kappa, V domains shown)
VH: B1 VH with Q3H, V5S, E10A, K12T, K23E, T69S, L90V, T97I
VL: B3 VL with S14R, V19A, S56A, N68H, I79V
B23: 1.1.104-1 (antibody, human IgG1, kappa, V domains shown)
VH: B1 VH with V5L, E10A, K12T, K23E, T69S, T97V
VL: B3 VL with V19A, N68T
B24: 2.2.7-1 (antibody, human IgG1, kappa, V domains shown)
VH: B1 VH with Q3H, V5S, E10A, K12T, K23E, N28K, Y32H, T69S, L90V, T97I
VL: B3 VL with S14R, T18R, V19A, S56A, R61S, N68T, N72S, N73S, I79V
B25: 2.3.18-1 (antibody, human IgG1, kappa, V domains shown)
VH: B1 VH with Q3H, V5S, E10A, K12T, K23E, T69S, L90V, T97I
VL: B3 VL with S14R, T18R, V19A, S56A, R61S, N68H, N72S, N73S, I79V
B26: 2.2.18-1 (antibody, human IgG1, kappa, V domains shown)
VH: B1 VH with Q3H, V5S, E10A, K12T, K23E, N28K, Y32H, T69S, L90V, T97I
VL: B3 VL with S14R, T18R, V19A, S56A, R61S, N68H, N72S, N73S, I79V
B27: 2.3.12-1 (antibody, human IgG1, kappa, V domains shown)
VH: B1 VH with Q3H, V5S, E10A, K12T, K23E, T69S, L90V, T97I
VL: B3 VL with S14R, V19A, S56A, N68I, I79V
B28: 1.1.119-1 (antibody, human IgG1, kappa, V domains shown)
VH: B1 VH with V5L, E10A, K12T, K23E, T69S, T97V
VL: B3 VL with T18R, V19A, R61S, N68T, N72S, N73S
B29: 3.1.7-1 (antibody, human IgG1, kappa, V domains shown)
VH: B1 VH with V5L, E10A, K12T, K23E, T69S, T97V
VL: B3 VL with S14R, T18R, V19A, S56A, R61S, N68T, N72S, N73S, I79V
B30: 2.3.7-1 (antibody, human IgG1, kappa, V domains shown)
VH: B1 VH with Q3H, V5S, E10A, K12T, K23E, T69S, L90V, T97I
VL: B3 VL with S14R, T18R, V19A, S56A, R61S, N68T, N72S, N73S, I79V
B31: 2.2.9-1 (antibody, human IgG1, kappa, V domains shown)
VH: B1 VH with Q3H, V5S, E10A, K12T, K23E, N28K, Y32H, T69S, L90V, T97I
VL: B3 VL with S14R, V19A, S56A, I79V
B32: 2.2.17-1 (antibody, human IgG1, kappa, V domains shown)
VH: B1 VH with Q3H, V5S, E10A, K12T, K23E, N28K, Y32H, T69S, L90V, T97I
VL: B3 VL with S14R, V19A, S56A, N68H, I79V
B33: 3.1.15-1 (antibody, human IgG1, kappa, V domains shown)
VH: B1 VH with V5L, E10A, K12T, K23E, T69S, T97V
VL: B3 VL with S14R, V19A, S56A, N68T, I79V
B34: 1.1.118-1 (antibody, human IgG1, kappa, V domains shown)
VH: B1 VH with V5L, E10A, K12T, K23E, T69S, T97V
VL: B3 VL with T18R, V19A, R61S, N68I, N72S, N73S
B35: 3.1.12-1 (antibody, human IgG1, kappa, V domains shown)
VH: B1 VH with V5L, E10A, K12T, K23E, T69S, T97V
VL: B3 VL with S14R, V19A, S56A, N68I, I79V
B36: 3.1.13-1 (antibody, human IgG1, kappa, V domains shown)
VH: B1 VH with V5L, E10A, K12T, K23E, T69S, T97V
VL: B3 VL with S14R, T18R, V19A, S56A, R61S, N68I, N72S, N73S, I79V
B37: 2.2.15-1 (antibody, human IgG1, kappa, V domains shown)
VH: B1 VH with Q3H, V5S, E10A, K12T, K23E, N28K, Y32H, T69S, L90V, T97I
VL: B3 VL with S14R, V19A, S56A, N68T, I79V

biological target: BSA (UniProt P02769); test: single-point ELISA

| Binder | ELISA (A450) |
| --- | --- |
| B1 | 0.07 |
| B2 | 0.06 |
| B3 | 0.1 |
| B4 | 0.06 |
| B5 | 0.06 |
| B6 | 0.06 |
| B7 | 0.08 |
| B8 | 0.06 |
| B9 | 0.06 |
| B10 | 0.06 |

biological target: HIV-1 envelope glycoprotein (gp120) of virus 7141 (HIV-1); test: cell-based or functional assay

| Binder | Neutralization IC50 [µg/mL] |
| --- | --- |
| B11 | 4.35 |
| B12 | 29.5 |
| B13 | > 9.8 |
| B14 | 5.93 |
| B15 | 22.7 |
| B16 | 3.8 |
| B17 | 2.56 |
| B18 | 25.5 |
| B19 | 7.08 |
| B20 | 15.5 |
| B21 | 16.9 |
| B22 | 31.3 |
| B23 | 5.13 |
| B24 | 1.58 |
| B25 | > 23 |
| B26 | 5.04 |
| B27 | 23.8 |
| B28 | 6.92 |
| B29 | 5.65 |
| B30 | 5.08 |
| B31 | 1.75 |
| B32 | 6.28 |
| B33 | 9.1 |
| B34 | 20.2 |
| B35 | 24.5 |
| B36 | 13.2 |
| B37 | 1.99 |

biological target: HIV-1 envelope glycoprotein (gp120) of virus 92US727 (HIV-1); test: cell-based or functional assay

| Binder | Neutralization IC50 [µg/mL] |
| --- | --- |
| B11 | 3.54 |
| B12 | > 50 |
| B13 | > 9.8 |
| B14 | > 50 |
| B15 | > 50 |
| B16 | > 50 |
| B17 | 11.1 |
| B18 | > 50 |
| B19 | > 50 |
| B20 | > 38 |
| B21 | > 50 |
| B22 | > 50 |
| B23 | > 50 |
| B24 | > 50 |
| B25 | > 23 |
| B26 | > 34 |
| B27 | > 50 |
| B28 | > 50 |
| B29 | > 50 |
| B30 | > 50 |
| B31 | 13.1 |
| B32 | > 50 |
| B33 | > 33 |
| B34 | > 50 |
| B35 | > 41 |
| B36 | > 21 |
| B37 | > 50 |

biological target: HIV-1 envelope glycoprotein (gp120) of virus VS001 (HIV-1); test: cell-based or functional assay

| Binder | Neutralization IC50 [µg/mL] |
| --- | --- |
| B11 | 0.16 |
| B12 | 3.3 |
| B13 | 3.52 |
| B14 | 0.85 |
| B15 | 3 |
| B16 | 1.48 |
| B17 | 0.22 |
| B18 | 2.21 |
| B19 | 2.1 |
| B20 | 1.5 |
| B21 | 3.03 |
| B22 | 4.54 |
| B23 | 0.45 |
| B24 | 0.27 |
| B25 | 2.37 |
| B26 | 2.51 |
| B27 | 1.92 |
| B28 | 0.39 |
| B29 | 0.3 |
| B30 | 0.47 |
| B31 | 0.15 |
| B32 | 4.38 |
| B33 | 0.49 |
| B34 | 2.4 |
| B35 | 2.41 |
| B36 | 0.56 |
| B37 | 0.37 |
